Measured values: PMC10713552 (Communications Biology, 2023)
Where two headings read alike, the source gives them in different places.

Legend:
Assay in all cases: BLI
[1] = target: T1, D614G-Hexapro (WT) spike ectodomain (SARS-CoV-2 Wuhan-Hu-1 D614G, D614G)
[2] = target: T2, Omicron BA.1 spike protein ectodomain (BLI) (SARS-CoV-2 Omicron BA.1, strain)
[3] = target: T1, D614G-Hexapro (WT) spike ectodomain; conditions: both partners purified
[4] = target: Omicron BA.5 spike protein ectodomain (BLI) (SARS-CoV-2 Omicron BA.5 (BA.4/5 spike), strain); conditions: both partners purified
[5] = target: T2, Omicron BA.1 spike protein ectodomain …; conditions: both partners purified
[6] = target: Omicron BA.2 spike protein ectodomain (BLI) (SARS-CoV-2, Omicron BA.2, strain); conditions: both partners purified
[7] = target: Omicron BA.2.12 spike protein ectodomain (BLI) (SARS-CoV-2 Omicron BA.2.12.1, strain); conditions: both partners purified
[8] = target: SARS-CoV-2 B.1.1.529.1/BA.1 S-HexaPro (SARS-CoV-2, Omicron BA.1, Ser371Leu | Ser373Pro | Ser375Phe | Q493R); conditions: both partners purified
[9] = target: SARS-CoV-2 Omicron BA.2.12.1 spike protein ectodomain (SARS-CoV-2 Omicron BA.2.12.1, S373P); conditions: both partners purified

B1: N3-1_Y (antibody, V domains shown)
VH: QVQLQQWGPGLVNPSETLSLTCSVSGGSFATENYYWSWIRQHPGEGLEWIGNIYFSGNTYYNPSLNNRFTISFDTSKNHLSLKLPSVTAADTAVYYCARGTIYFDYSGYRRVDPFHIWGQGTMVIVSS
VL: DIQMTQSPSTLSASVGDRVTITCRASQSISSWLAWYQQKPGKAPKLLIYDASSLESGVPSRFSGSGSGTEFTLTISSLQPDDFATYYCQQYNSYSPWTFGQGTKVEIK
notes: IgG1
B1 was tested, and the Kd [1] was 233 nM, the koff [1] was 0.000325 s⁻¹ and the kon [1] was 1400 M⁻¹ s⁻¹. The Kd [2] was 3550 nM, the koff [2] was 0.00213 s⁻¹ and the kon [2] was 600 M⁻¹ s⁻¹. It also gave a Kd [3] of 5.45 nM, a koff [3] of 0.000748 s⁻¹ and a kon [3] of 137000 M⁻¹ s⁻¹. The Kd [4] was 337 nM, the koff [4] was 0.0072 s⁻¹ and the kon [4] was 21300 M⁻¹ s⁻¹. The Kd [5] was 709 nM, the koff [5] was 0.00791 s⁻¹ and the kon [5] was 11200 M⁻¹ s⁻¹. For the same binder, the Kd [6] was 225 nM, the koff [6] was 0.00447 s⁻¹ and the kon [6] was 19900 M⁻¹ s⁻¹. It also gave a Kd [7] of 142 nM, a koff [7] of 0.00385 s⁻¹ and a kon [7] of 27100 M⁻¹ s⁻¹.

B2: N3-1_I (antibody, V domains shown)
VH: QVQLQQWGPGLVNPSETLSLTCSVSGGSFATENYYWSWIRQHPGEGLEWIGNIYFSGNTYYNPSLNNRFTISFDTSKNHLSLKLPSVTAADTAVYYCARGTIYFDISGYRRVDPFHIWGQGTMVIVSS
VL: not shown
notes: IgG1
Work on B2 yielded a Kd [1] of 1220 nM, a koff [1] of 0.000796 s⁻¹ and a kon [1] of 651 M⁻¹ s⁻¹. The Kd [2] was 20.4 nM, the koff [2] was 0.00136 s⁻¹ and the kon [2] was 66700 M⁻¹ s⁻¹. The kon [3] was 76000 M⁻¹ s⁻¹, the Kd [4] was 145 nM and the koff [4] was 0.00168 s⁻¹. It also gave a kon [4] of 11600 M⁻¹ s⁻¹, a Kd [5] of 331 nM and a koff [5] of 0.00193 s⁻¹. The kon [5] was 5820 M⁻¹ s⁻¹, the Kd [6] was 121 nM and the koff [6] was 0.00146 s⁻¹. It also gave a kon [6] of 12100 M⁻¹ s⁻¹, a Kd [7] of 76.9 nM and a koff [7] of 0.00112 s⁻¹. It also gave a kon [7] of 14600 M⁻¹ s⁻¹.

B3: N3-1_L (antibody, V domains shown)
VH: QVQLQQWGPGLVNPSETLSLTCSVSGGSFATENYYWSWIRQHPGEGLEWIGNIYFSGNTYYNPSLNNRFTISFDTSKNHLSLKLPSVTAADTAVYYCARGTIYFDLSGYRRVDPFHIWGQGTMVIVSS
VL: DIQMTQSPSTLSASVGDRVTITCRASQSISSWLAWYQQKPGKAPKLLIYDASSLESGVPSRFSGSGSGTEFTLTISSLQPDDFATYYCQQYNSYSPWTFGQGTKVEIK
notes: IgG1
B3 showed a Kd [1] of 54.1 nM, a koff [1] of 0.00037 s⁻¹ and a kon [1] of 6840 M⁻¹ s⁻¹. It also gave a Kd [2] of 15200 nM, a koff [2] of 0.00357 s⁻¹ and a kon [2] of 234 M⁻¹ s⁻¹. The Kd [3] was 6 nM, the koff [3] was 0.00047 s⁻¹ and the kon [3] was 78300 M⁻¹ s⁻¹. For the same binder, the Kd [4] was 414 nM, the koff [4] was 0.00689 s⁻¹ and the kon [4] was 16600 M⁻¹ s⁻¹. For the same binder, the Kd [5] was 660 nM, the koff [5] was 0.00429 s⁻¹ and the kon [5] was 6490 M⁻¹ s⁻¹. For the same binder, the Kd [6] was 273 nM, the koff [6] was 0.00415 s⁻¹ and the kon [6] was 15200 M⁻¹ s⁻¹. It also gave a Kd [7] of 173 nM, a koff [7] of 0.00339 s⁻¹ and a kon [7] of 19500 M⁻¹ s⁻¹.

B4: N3-1_I (antibody, V domains shown)
VH: QVQLQQWGPGLVNPSETLSLTCSVSGGSFATENYYWSWIRQHPGEGLEWIGNIYFSGNTYYNPSLNNRFTISFDTSKNHLSLKLPSVTAADTAVYYCARGTIYFDISGYRRVDPFHIWGQGTMVIVSS
VL: not shown
notes: IgG1; copies: 2 + 2
In the case of B4, the “fold improvement in Kd against wild-type N3-1” value [8] is reported as 4 fold and the “fold improvement in Kd against wild-type N3-1” value [9] is reported as 20 fold.
